The labels stand for the following.
T1: recombinant human GPR1 receptor (human, UniProt P46091 1-355)
T1 sequence: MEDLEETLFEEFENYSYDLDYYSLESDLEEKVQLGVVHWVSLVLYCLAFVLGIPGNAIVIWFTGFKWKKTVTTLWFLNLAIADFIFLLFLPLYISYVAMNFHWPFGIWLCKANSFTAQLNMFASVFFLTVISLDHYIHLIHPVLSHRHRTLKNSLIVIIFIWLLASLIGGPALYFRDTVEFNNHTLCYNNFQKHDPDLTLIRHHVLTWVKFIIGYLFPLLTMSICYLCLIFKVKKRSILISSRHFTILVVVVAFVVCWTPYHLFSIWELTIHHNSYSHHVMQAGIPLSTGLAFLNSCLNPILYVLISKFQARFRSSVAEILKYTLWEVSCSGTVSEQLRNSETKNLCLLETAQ

The target of the assay is T1, recombinant human GPR1 receptor. Briefly: cell-based or functional assay.
Take d-Ser14-Humanin (peptide): the EC50 of beta-arrestin2 recruitment (agonistic activity), CHO-K1-hGPR1-Beta-arrestin 2 PathHunter cells was found to be 92.8 nM.

Take MAPRGFSCLLLLTGEIDLPVKRRA [Gly14-Humanin]: the “EC50 of beta-arrestin2 recruitment (agonistic activity), CHO-K1-hGPR1-Beta-arrestin 2 PathHunter cells” value (shortened to “EC50 of beta-arrestin2 recruitment”) is 46.1 nM.

On to MAPRGFSCLLLLTSEIDLPVKRRA [Humanin], for which the “EC50 of beta-arrestin2 recruitment” value worked out at 60.9 nM.

For the molecule MAPRGFSALLLLTSEIDLPVKRRA [Ala8-Humanin], the “EC50 of beta-arrestin2 recruitment” value is 55.6 nM.

The values are drawn from US20120202221A1 (ACTELION PHARMACEUTICALS, published 2012).
